From patent US20210198329A1 (PASTEUR INSTITUTE OF IRAN, published 2021)
Bridges are numbered along the chain shown (N, C = ends). Where no end group is shown, it is not given here.

Target: T1, low-density lipoprotein receptor-related protein 6 (LRP6) (UniProt O75581 20-1370, limits assumed)
T1 construct: also called LRP6 receptor
T1 sequence (looked up): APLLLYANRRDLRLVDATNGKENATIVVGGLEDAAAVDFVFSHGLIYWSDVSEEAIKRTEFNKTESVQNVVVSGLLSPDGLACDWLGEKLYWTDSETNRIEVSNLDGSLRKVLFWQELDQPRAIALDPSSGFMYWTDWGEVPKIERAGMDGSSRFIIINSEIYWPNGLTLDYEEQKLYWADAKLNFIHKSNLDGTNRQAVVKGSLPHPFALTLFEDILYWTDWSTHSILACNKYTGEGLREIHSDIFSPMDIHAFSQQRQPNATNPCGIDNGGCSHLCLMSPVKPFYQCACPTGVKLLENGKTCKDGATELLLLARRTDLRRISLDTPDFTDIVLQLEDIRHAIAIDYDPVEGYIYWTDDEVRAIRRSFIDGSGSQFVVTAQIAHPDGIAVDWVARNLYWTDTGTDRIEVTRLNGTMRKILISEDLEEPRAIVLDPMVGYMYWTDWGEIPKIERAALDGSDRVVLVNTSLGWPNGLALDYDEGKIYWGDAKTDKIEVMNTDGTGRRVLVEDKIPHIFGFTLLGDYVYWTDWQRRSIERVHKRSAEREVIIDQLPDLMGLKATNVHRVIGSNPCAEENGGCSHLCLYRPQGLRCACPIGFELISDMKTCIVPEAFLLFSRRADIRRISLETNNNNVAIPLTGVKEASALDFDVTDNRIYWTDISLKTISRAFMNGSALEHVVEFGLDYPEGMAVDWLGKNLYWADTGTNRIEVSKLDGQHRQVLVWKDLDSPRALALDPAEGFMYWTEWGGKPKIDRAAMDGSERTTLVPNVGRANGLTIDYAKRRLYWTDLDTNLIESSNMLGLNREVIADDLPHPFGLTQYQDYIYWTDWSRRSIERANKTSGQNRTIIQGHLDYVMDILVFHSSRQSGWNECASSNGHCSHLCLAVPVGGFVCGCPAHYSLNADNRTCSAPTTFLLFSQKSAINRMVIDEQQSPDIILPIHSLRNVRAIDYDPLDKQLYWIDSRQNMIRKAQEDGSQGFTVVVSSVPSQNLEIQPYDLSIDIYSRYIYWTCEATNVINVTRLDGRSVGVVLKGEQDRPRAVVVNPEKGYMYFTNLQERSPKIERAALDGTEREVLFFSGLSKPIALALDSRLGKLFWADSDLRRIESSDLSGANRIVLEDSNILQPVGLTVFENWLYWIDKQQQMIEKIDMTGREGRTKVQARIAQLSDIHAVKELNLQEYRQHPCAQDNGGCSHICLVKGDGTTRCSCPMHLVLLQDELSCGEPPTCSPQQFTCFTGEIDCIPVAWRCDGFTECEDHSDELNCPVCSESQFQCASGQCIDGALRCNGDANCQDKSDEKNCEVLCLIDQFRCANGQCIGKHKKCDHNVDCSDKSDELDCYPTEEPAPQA
Assay: LSPR spectroscopy; peptide on nanoparticles as ligand, LRP6 as analyte at 10^-9 to 10^-6 M; sigmoid fit of plasmon shift
Description: In this example, the binding affinity of exemplary peptides to the LRP6 receptor was determined by performing localized surface plasmon resonance (LSPR) spectroscopy. In the LSPR spectroscopy, the response of free electrons to nanoparticles in the presence of biomolecules may be observed as changes in wavelength and intensity of absorption. A stabilized compound on the nanoparticles' surface is called a ligand, and a second free compound is called an analyte. […] Also, the LRP6 was used as the analyte because of its negative surface charge. By adding the LRP6 as the analyte in the concentration ranges of 10⁻⁹ M to 10⁻⁶ M, the wavelength changes (plasmon shift) were recorded for each concentration. In the end, the KD values of exemplary peptides were determined by calculating the sigmoid curve of wavelength changes in terms of LRP6 concentration.

B1: pep-2 (SEQ ID NO: 2) (peptide)
peptide: QVCTKHRRKGSHGLEIFQRCY
notes: Held on nanoparticles as the ligand in the LSPR assay
B1 was tested, and the Kd was about 470 nM.

B2: pep-4 (SEQ ID NO: 4) (peptide)
peptide: CCARHFWSKIC
modifications: disulfide 1-11
notes: Made by synthesis; Held on nanoparticles as the ligand in the LSPR assay
With B2 the Kd was about 550 nM.
